Assay results as given in article PMC3613695 (The Journal of Cell Biology, 2013).

B1: Vab2 with C-terminal TAP tag (natural protein)
chain: MVADLTKGILKWKSRIEFDAVGSSSYYEELKGLPPLASHKKLTQAAIFNSTKYELLQVKKDILSIYEVVSRDIDEERNQMQQIELQLKKSLKKVEHSYKNVLKQRASTNCINGNDRLLANAEKKIGSLNEELACVNDIVSDIVNNLTALNANLPKKAQLLKDDSINVAHYPLLFDFLHKSCPKSIIATSEASIHENASPSPLLEHDELPAESINSFYGENELQSDSLAPLQTHDDNISSCKKILPPKFNTTSGPSIETNFENISADGLTYTKCSLKNSISLT

Assays:
[1] = molecular target: B1; experiment: affinity purification with mass spectrometry
[2] = molecular target: B1; experiment: SEC
[3] = molecular target: Snn1 (BLOC-1 subunit), overexpressed (yeast, UniProt P48232 1-102); experiment: affinity purification with mass spectrometry

Binder	binding result [1]	also measured
Cnl1 (BLOC-1 subunit), overexpressed (natural protein, yeast, UniProt Q06333 1-122, looked up) MQDNSSHSRESASAGDDPLGIDKLTVDYDYLLYKMRDYVQSIQLDTTELCKKQNEVMVNGIIENTIDKNIAKFKELLEKCDTLENHYEMLNQLAIITDTFKERIAEAVNNYNSLKKGASKSK	binds	–
Kxd1 (BLOC-1 subunit), overexpressed (natural protein, yeast, UniProt P53158 1-218, looked up) MVTGISEENDDEETFSAVHSSTPSINSQSYAIPITEEMSSSFHDSISTTSNSSGSFDSDGSNVSDVVEQNEMDNESNVDEDLFLDNDIPQSSNLLPTDAQDPGPIFDVSRYIFDSLKQSIDSADFSEALSLQTKTSAVINSKSLELKQYIDEMKSRLTQLQEKFENGEATSKKIKRDLETSRKNIDYLNAALRVDFPIEFNQAREKILERRLNEDHDC	–	binding result [2]: binds
Bls1 (BLOC-1 subunit), overexpressed (natural protein, yeast, UniProt Q06071 1-122, looked up) MFLTFSMCVNWIIVKMPNRSEELDRLLDKIINSPHRTEASKTLQEIENNQSYILNVQLKKLLRLHDDSFKNKCVSPINYMLEKYTPYMGHTEALQKEAELVDRDLRILEMTYQLIEKNRNSK	binds	–
B1	–	binding result [3]: binds
Bli1 (BLOC-1 subunit), overexpressed (natural protein, yeast, UniProt P35727 1-113, looked up) MGEQNKLYYDVEKLVNSLQESFDLDCAQSVSLFTSKSRSNEAWLEELENKFKLKDDVELDDVENLRAEIDMKLNMLEDKVSYYERLYKELEEFQNEIKIKTVVNNRRQSRTPK	binds	–
